Biological target: human IL‐4Rα (human, UniProt P24394 26-232, N‐glycosylation sites (modelled in the crystal structure; positions not given))
Experiment: ITC

B1: dAb1 (VHH)
VHH: QVQLVESGGGLVQPGGSLRLSCAASGDFYCMAWFRQAPGKEREAVAAIRSGGRSTYYADSVKGRFTISRDNSKNTLYLQMNSLKAEDTAVYYCAVGVDGNCRNYWGQGTLVTVSS
B1 was tested, and the Kd was 2.55 nM.

From article PMC11381654 (2020)
